For orientation: koff means the first-order rate constant of dissociation. A higher koff goes with fast dissociation. The kon is a measure of how fast the partners come together. High values mean faster complex formation, low ones slower complex formation. The Kd is the concentration at which binding is half-saturated. Low values mean tighter binding, high ones weaker binding.

From paper PMC10640585, “The E3 ligase Riplet promotes RIG-I signaling independent of RIG-I oligomerization” (Nature Communications, 2023) come the findings set out here.

Holding throughout (conditions): both partners purified
Assay [1] concerns the target T1, biotinylated Avi-tagged RIG-I (Retinoic acid inducible gene-I) (human, UniProt O95786 1-925, biotin on the Avi tag (by BirA)).
T1 construct: RIG-I, human, full-length protein; Used alone (apo), pre-incubated with the RNA p3SLR14 (one RIG-I per RNA) or with p3dsRNA24 (two RIG-I per RNA); also called Avi-RIG-I; Apo-RIG-I; source: E. coli Rosetta 2(DE3), purified (Ni-NTA, heparin, SEC), biotinylated by BirA, SEC; not shown: His6, N-terminal, cleaved; SUMO, N-terminal, cleaved
T1 sequence (looked up): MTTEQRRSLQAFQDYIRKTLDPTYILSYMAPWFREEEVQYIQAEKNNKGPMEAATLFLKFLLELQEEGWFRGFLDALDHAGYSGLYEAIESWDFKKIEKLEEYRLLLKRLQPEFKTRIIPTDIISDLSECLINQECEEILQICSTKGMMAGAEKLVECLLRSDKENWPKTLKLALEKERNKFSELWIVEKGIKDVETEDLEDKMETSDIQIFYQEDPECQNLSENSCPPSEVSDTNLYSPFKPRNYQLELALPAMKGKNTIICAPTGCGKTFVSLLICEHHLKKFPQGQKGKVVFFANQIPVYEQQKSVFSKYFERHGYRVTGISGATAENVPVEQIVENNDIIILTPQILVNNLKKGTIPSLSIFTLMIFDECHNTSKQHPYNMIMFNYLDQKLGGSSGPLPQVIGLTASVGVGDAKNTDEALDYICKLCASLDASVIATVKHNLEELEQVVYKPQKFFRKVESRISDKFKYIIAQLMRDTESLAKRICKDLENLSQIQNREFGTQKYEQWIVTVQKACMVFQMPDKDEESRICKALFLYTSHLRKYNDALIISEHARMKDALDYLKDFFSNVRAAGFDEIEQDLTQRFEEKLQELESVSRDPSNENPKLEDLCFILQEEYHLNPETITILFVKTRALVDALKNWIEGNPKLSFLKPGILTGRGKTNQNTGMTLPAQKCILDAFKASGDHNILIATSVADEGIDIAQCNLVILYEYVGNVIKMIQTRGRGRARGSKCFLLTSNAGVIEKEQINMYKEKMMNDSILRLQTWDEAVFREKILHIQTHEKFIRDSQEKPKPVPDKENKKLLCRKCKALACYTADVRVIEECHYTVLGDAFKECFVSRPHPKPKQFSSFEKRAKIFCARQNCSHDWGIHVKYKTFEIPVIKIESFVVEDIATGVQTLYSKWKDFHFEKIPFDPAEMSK
Kind of assay: SPR; biotinylated RIG-I pre-incubated with p3SLR14 (1:1.5, 4 °C overnight) immobilised on a streptavidin SADH chip; Riplet constructs as analyte in HBS-EP+, 50 µl/min, dissociation 180 s, OneStep mode, 1:1 model. On the technique in general: In SPR one partner is held on a chip, and binding of the other changes the refractive index at the surface.

Assay [2] concerns the target T1, biotinylated Avi-tagged RIG-I (Retinoic …). Kind of assay: SPR; biotinylated apo-RIG-I (no RNA) immobilised on a streptavidin SADH chip; Riplet constructs as analyte in HBS-EP+, 50 µl/min, dissociation 180 s, OneStep mode, 1:1 model.
For assay [3] the target is unchanged. Kind of assay: SPR; biotinylated RIG-I pre-incubated with p3dsRNA24 (2.4:1, 4 °C overnight; two RIG-I per RNA) immobilised on a streptavidin SADH chip; Riplet constructs as analyte in HBS-EP+, 50 µl/min, dissociation 180 s, OneStep mode, 1:1 model.
Assay [4] deals with T2, biotinylated Avi-tagged RIG-I (human, UniProt O95786 1-925, biotin on the Avi tag (by BirA)).
T2 construct: RIG-I (Retinoic acid inducible gene-I), human, full-length; Immobilised on the SPR chip as apo protein or pre-incubated with p3SLR14 (1:1.5) or p3dsRNA24 (2.4:1; two RIG-I on one RNA); also called Avi-RIG-I; biotinylated RIG-I; source: E. coli Rosetta 2(DE3), purified (Ni-NTA, ULP1, heparin, size exclusion), biotinylated by BirA, size exclusion; not shown: 6xHis, N-terminal, cleaved; SUMO, …
T2 sequence (looked up): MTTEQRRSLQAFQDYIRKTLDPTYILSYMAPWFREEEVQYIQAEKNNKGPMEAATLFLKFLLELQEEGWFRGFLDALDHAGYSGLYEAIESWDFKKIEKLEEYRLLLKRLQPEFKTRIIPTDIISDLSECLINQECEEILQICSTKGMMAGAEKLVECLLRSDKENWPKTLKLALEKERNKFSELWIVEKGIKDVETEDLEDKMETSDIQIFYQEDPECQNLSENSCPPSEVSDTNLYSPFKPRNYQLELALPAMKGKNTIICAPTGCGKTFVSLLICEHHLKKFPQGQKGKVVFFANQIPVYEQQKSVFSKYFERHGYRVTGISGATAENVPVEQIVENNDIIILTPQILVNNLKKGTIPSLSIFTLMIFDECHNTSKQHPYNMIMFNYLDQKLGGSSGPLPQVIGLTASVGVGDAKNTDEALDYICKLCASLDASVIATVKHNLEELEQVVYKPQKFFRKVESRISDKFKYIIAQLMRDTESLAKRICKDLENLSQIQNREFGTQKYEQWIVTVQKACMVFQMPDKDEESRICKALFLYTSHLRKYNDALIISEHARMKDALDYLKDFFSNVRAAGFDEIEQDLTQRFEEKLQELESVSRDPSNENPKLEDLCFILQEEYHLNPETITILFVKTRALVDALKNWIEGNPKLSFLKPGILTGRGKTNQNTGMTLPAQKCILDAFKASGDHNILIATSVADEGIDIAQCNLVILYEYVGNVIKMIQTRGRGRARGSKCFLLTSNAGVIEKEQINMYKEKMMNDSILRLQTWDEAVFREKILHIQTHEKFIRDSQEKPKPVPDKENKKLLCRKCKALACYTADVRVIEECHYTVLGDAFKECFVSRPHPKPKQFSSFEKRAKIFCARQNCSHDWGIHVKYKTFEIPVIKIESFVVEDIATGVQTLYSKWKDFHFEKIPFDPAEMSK
Kind of assay: SPR; biotinylated RIG-I pre-incubated with p3dsRNA24 (2.4:1, 4 °C overnight; two RIG-I on one RNA) immobilised on streptavidin SADH chip; Riplet constructs 0.125-10 µM in HBS-EP+, 50 µl/min, dissociation 180 s, OneStep mode, 1:1 model.

For assay [5], the target named is T2, biotinylated Avi-tagged RIG-I. Kind of assay: SPR; apo biotinylated RIG-I immobilised on streptavidin SADH chip; Riplet constructs 0.125-10 µM in HBS-EP+, 50 µl/min, dissociation 180 s, OneStep mode, 1:1 model.
Assay [6] shares this target. Kind of assay: SPR; biotinylated RIG-I pre-incubated with p3SLR14 (1:1.5, 4 °C overnight) immobilised on streptavidin SADH chip; Riplet constructs 0.125-10 µM in HBS-EP+, 50 µl/min, dissociation 180 s, OneStep mode, 1:1 model.

B1: Riplet full length (RING finger protein leading to RIG-I activation) (enzyme, human, UniProt Q8IUD6 1-432, looked up)
chain: MAGLGLGSAVPVWLAEDDLGCIICQGLLDWPATLPCGHSFCRHCLEALWGARDARRWACPTCRQGAAQQPHLRKNTLLQDLADKYRRAAREIQAGSDPAHCPCPGSSSLSSAAARPRRRPELQRVAVEKSITEVAQELTELVEHLVDIVRSLQNQRPLSESGPDNELSILGKAFSSGVDLSMASPKLVTSDTAAGKIRDILHDLEEIQEKLQESVTWKEAPEAQMQGELLEAPSSSSCPLPDQSHPALRRASRFAQWAIHPTFNLKSLSCSLEVSKDSRTVTVSHRPQPYRWSCERFSTSQVLCSQALSSGKHYWEVDTRNCSHWAVGVASWEMSRDQVLGRTMDSCCVEWKGTSQLSAWHMVKETVLGSDRPGVVGIWLNLEEGKLAFYSVDNQEKLLYECTISASSPLYPAFWLYGLHPGNYLIIKQVKV
notes: Riplet, human, full length (1-432); also called Riplet-FL; Riplet WT; source: E. coli Rosetta 2(DE3), purified (Ni-NTA, SEC); not shown: His6, N-terminal, cleaved; SUMO, N-terminal, cleaved
For the molecule B1, the koff was 0.013 s⁻¹ in assay [1], 0.0034 s⁻¹ in assay [2] and 0.003 s⁻¹ in assay [3]. Besides, the kon in assay [1] was determined as 19000 M⁻¹ s⁻¹; in assay [2], 4600 M⁻¹ s⁻¹; in assay [3], 450000 M⁻¹ s⁻¹.

B2: Riplet, full-length (Riplet-FL) (enzyme, human, UniProt Q8IUD6 1-432, looked up)
chain: MAGLGLGSAVPVWLAEDDLGCIICQGLLDWPATLPCGHSFCRHCLEALWGARDARRWACPTCRQGAAQQPHLRKNTLLQDLADKYRRAAREIQAGSDPAHCPCPGSSSLSSAAARPRRRPELQRVAVEKSITEVAQELTELVEHLVDIVRSLQNQRPLSESGPDNELSILGKAFSSGVDLSMASPKLVTSDTAAGKIRDILHDLEEIQEKLQESVTWKEAPEAQMQGELLEAPSSSSCPLPDQSHPALRRASRFAQWAIHPTFNLKSLSCSLEVSKDSRTVTVSHRPQPYRWSCERFSTSQVLCSQALSSGKHYWEVDTRNCSHWAVGVASWEMSRDQVLGRTMDSCCVEWKGTSQLSAWHMVKETVLGSDRPGVVGIWLNLEEGKLAFYSVDNQEKLLYECTISASSPLYPAFWLYGLHPGNYLIIKQVKV
notes: Only the PrySpry domain is resolved in the cryo-EM maps; also called Riplet WT; E3 ligase Riplet; source: E. coli Rosetta 2(DE3), purified (Ni-NTA, ULP1 digestion, size exclusion); not shown: 6xHis, N-terminal, cleaved; SUMO, N-terminal, cleaved
In the case of B2, the Kd in assay [4] is 6.6 nM; in assay [5] it was 700 nM.

B3: Riplet-ΔRING (94-432) (domain or fragment, human, UniProt Q8IUD6 94-432, looked up)
chain: AGSDPAHCPCPGSSSLSSAAARPRRRPELQRVAVEKSITEVAQELTELVEHLVDIVRSLQNQRPLSESGPDNELSILGKAFSSGVDLSMASPKLVTSDTAAGKIRDILHDLEEIQEKLQESVTWKEAPEAQMQGELLEAPSSSSCPLPDQSHPALRRASRFAQWAIHPTFNLKSLSCSLEVSKDSRTVTVSHRPQPYRWSCERFSTSQVLCSQALSSGKHYWEVDTRNCSHWAVGVASWEMSRDQVLGRTMDSCCVEWKGTSQLSAWHMVKETVLGSDRPGVVGIWLNLEEGKLAFYSVDNQEKLLYECTISASSPLYPAFWLYGLHPGNYLIIKQVKV
notes: Riplet, human, residues 94-432 (CC and PrySpry domains, RING deleted); source: E. coli Rosetta 2(DE3), purified (Ni-NTA, SEC); not shown: His6, N-terminal, cleaved; SUMO, N-terminal, cleaved
For B3, the results for the koff in assay [1], in assay [2] and in assay [3] were 0.067 s⁻¹, 0.073 s⁻¹ and 0.0085 s⁻¹, respectively. Besides, the kon turned out to be 54000 M⁻¹ s⁻¹ in assay [1], 110000 M⁻¹ s⁻¹ in assay [2] and 810000 M⁻¹ s⁻¹ in assay [3]. Also, the Kd in assay [2] amounted to 700 nM.

B4: Riplet-ΔRING (94-432) (domain or fragment, human, UniProt Q8IUD6 94-432, looked up)
chain: AGSDPAHCPCPGSSSLSSAAARPRRRPELQRVAVEKSITEVAQELTELVEHLVDIVRSLQNQRPLSESGPDNELSILGKAFSSGVDLSMASPKLVTSDTAAGKIRDILHDLEEIQEKLQESVTWKEAPEAQMQGELLEAPSSSSCPLPDQSHPALRRASRFAQWAIHPTFNLKSLSCSLEVSKDSRTVTVSHRPQPYRWSCERFSTSQVLCSQALSSGKHYWEVDTRNCSHWAVGVASWEMSRDQVLGRTMDSCCVEWKGTSQLSAWHMVKETVLGSDRPGVVGIWLNLEEGKLAFYSVDNQEKLLYECTISASSPLYPAFWLYGLHPGNYLIIKQVKV
notes: Riplet, human, residues 94-432 (RING domain deleted; CC and PrySpry domains kept); pET-SUMO-Riplet-ΔRING(94-432); the PDB entries are of the full-length parent; source: E. coli Rosetta 2(DE3), purified (Ni-NTA, ULP1 digestion, size exclusion); not shown: 6xHis, N-terminal, cleaved; SUMO, N-terminal, cleaved
Consider B4, for which the figures for the Kd in assay [6] and in assay [4] were 700 to 1200 nM and 10 nM, respectively.
